# Test results taken from article PMC11189300 (2024).
# B1: KNL1 residues 2,026–2,342 [human] / Mis12 complex (Mis12C), full length: MIS12, PMF1, NSL1, DSN1 [human] (parent complex)
# chain 1: SAQNEREKLQIKIDEMDKILKKIDNCLTEMETETKNLEDEEKNNPVEEWDSEMRAAEKELEQLKTEEEELQRNLLELEVQKEQTLAQIDFMQKQRNRTEELLDQLSLSEWDVVEWSDDQAVFTFVYDTIQLTITFEESVVGFPFLDKRYRKIVDVNFQSLLDEDQAPPSSLLVHKLIFQYVEEKESWKKTCTTQHQLPKMLEEFSLVVHHCRLLGEEIEYLKRWGPNYNLMNIDINNNELRLLFSSSAAFAKFEITLFLSAYYPSVPLPSTIQNHVGNTSQDDIATILSKVPLENNYLKNVVKQIYQDLFQDCHFYH
# chain 2: MSVDPMTYEAQFFGFTPQTCMLRIYIAFQDYLFEVMQAVEQVILKKLDGIPDCDISPVQIRKCTEKFLCFMKGHFDNLFSKMEQLFLQLILRIPSNILLPEDKCKETPYSEEDFQHLQKEIEQLQEKYKTELCTKQALLAELEEQKIVQAKLKQTLTFFDELHNVGRDHGTSDFRESLVSLVQNSRKLQNIRDNVEKESKRLKIS
# chain 3: MAEASSANLGSGCEEKRHEGSSSESVPPGTTISRVKLLDTMVDTFLQKLVAAGSYQRFTDCYKCFYQLQPAMTQQIYDKFIAQLQTSIREEISDIKEEGNLEAVLNALDKIVEEGKVRKEPAWRPSGIPEKDLHSVMAPYFLQQRDTLRRHVQKQEAENQQLADAVLAGRRQVEELQLQVQAQQQAWQALHREQRELVAVLREPE
# chain 4: MAGSPELVVLDPPWDKELAAGTESQALVSATPREDFRVRCTSKRAVTEMLQLCGRFVQKLGDALPEEIREPALRDAQWTFESAVQENISINGQAWQEASDNCFMDSDIKVLEDQFDEIIVDIATKRKQYPRKILECVIKTIKAKQEILKQYHPVVHPLDLKYDPDPAPHMENLKCRGETVAKEISEAMKSLPALIEQGEGFSQVLRMQPVIHLQRIHQEVFSSCHRKPDAKPENFITQIETTPTETASRKTSDMVLKRKQTKDCPQRKWYPLRPKKINLDT
# chain 5: MTSVTRSEIIDEKGPVMSKTHDHQLESSLSPVEVFAKTSASLEMNQGVSEERIHLGSSPKKGGNCDLSHQERLQSKSLHLSPQEQSASYQDRRQSWRRASMKETNRRKSLHPIHQGITELSRSISVDLAESKRLGCLLLSSFQFSIQKLEPFLRDTKGFSLESFRAKASSLSEELKHFADGLETDGTLQKCFEDSNGKASDFSLEASVAEMKEYITKFSLERQTWDQLLLHYQQEAKEILSRGSTEAKITEVKVEPMTYLGSSQNEVLNTKPDYQKILQNQSKVFDCMELVMDELQGSVKQLQAFMDESTQCFQKVSVQLGKRSMQQLDPSPARKLLKLQLQNPPAIHGSGSGSCQ
# Variants of: B1
# Test: ITC; syringe KNL1^M2; cell Mis12C^WT; parent: 1.56 nM
row,Kd [nM],Variant
1,109,"chain 1 SAQNEREKLQIKIDEMDKILKKIDNCLTEMETETKNLEDEEKNNPVEEWDSEMRAAEKELEQLKTEEEELQRNLLELEVQKEQTLAQIDFMQKQRNRTEELLDQLSLSEWDVVEWSDDQAVFTFVYDTIQLTITFEESVVGFPFLDKRYRKIVDVNFQSLLDEDQAPPSSLLVHKLIFQYVEEKESWKKTCTTQHQLPKMLEEFSLVVHHCRLLGEEIEYLKRWGPNYNLANIDINNNELRLLFSSWAAAAEFEITLFLSAYYPSVPLPSTIQNHVGNTSQDDIATILSKVPLENNYLKNVVKQIYQDLFQDCHFYH [chain 1 M231A, chain 1 S247W, chain 1 F250A, chain 1 K252E]"

# Variants of: B1
# Test: ITC; syringe KNL1^M1; cell Mis12C^WT; parent: 1.56 nM
row,Kd [nM],Variant
1,140,"chain 1 SAQNEREKLQIKIDEMDKILKKIDNCLTEMETETKNLEDEEKNNPVEEWDSEMRAAEKELEQLKTEEEELQRNLLELEVQKEQTLAQIDFMQKQRNRTEELLDQLSLSEWDVVEWSDDQAVFTFVYDTIQLTITFEESVVGFPFLDKRYRKIVDVNFQSLLDEDQAPPSSLLVHKLIFQYVEEKESWKKTCTTQHQLPKMLEEFSLVVHHCRLLGEEIEYLKRWGPNYNLANIDINNNELRLLFSSWAAAAAFEITLFLSAYYPSVPLPSTIQNHVGNTSQDDIATILSKVPLENNYLKNVVKQIYQDLFQDCHFYH [chain 1 M231A, chain 1 S247W, chain 1 F250A, chain 1 K252A]"

# Variants of: B1
# Test: ITC; syringe KNL1^WT; cell Mis12C^M2; parent: 1.56 nM
row,Kd [nM],Variant
1,24.8,"chain 3 MAEASSANLGSGCEEKRHEGSSSESVPPGTTISRVKLLDTMVDTFLQKLVAAGSYQRFTDCYKCFYQLQPAMTQQIYDKFIAQLQTSIREEISDIKEEGNLEAVLNALDKIVEEGKVRKEPAWRPSGIPEKDLHSVMAPYFLQQRDTLRRHVQKQEAENQQLADAVLAGRRQVEELQLQVQAQQQAWQALHREQEELLAVLREPE chain 5 MTSVTRSEIIDEKGPVMSKTHDHQLESSLSPVEVFAKTSASLEMNQGVSEERIHLGSSPKKGGNCDLSHQERLQSKSLHLSPQEQSASYQDRRQSWRRASMKETNRRKSLHPIHQGITELSRSISVDLAESKRLGCLLLSSFQFSIQKLEPFLRDTKGFSLESFRAKASSLSEELKHFADGLETDGTLQKCFEDSNGKASDFSLEASVAEMKEYITKFSLERQTWDQLLLHYQQEAKEILSRGSTEAKITEVKVEPMTYLGSSQNEVLNTKPDYQKILQNQSKVFDCMEFVMDELQGSVKQLQAFMDESTQCFQKVSVQLGKRSMQQLDPSPARKLLKLQLQNPPAIHGSGSGSCQ [chain 3 R195E, chain 3 V198L, chain 5 L290F]"

# Variants of: B1
# Test: ITC; syringe KNL1^WT; cell Mis12C^M1; parent: -12
row,dG,Variant
1,-10,"chain 3 MAEASSANLGSGCEEKRHEGSSSESVPPGTTISRVKLLDTMVDTFLQKLVAAGSYQRFTDCYKCFYQLQPAMTQQIYDKFIAQLQTSIREEISDIKEEGNLEAVLNALDKIVEEGKVRKEPAWRPSGIPEKDLHSVMAPYFLQQRDTLRRHVQKQEAENQQLADAVLAGRRQVEELQLQVQAQQQAWQALHREQAELLAVLREPE chain 5 MTSVTRSEIIDEKGPVMSKTHDHQLESSLSPVEVFAKTSASLEMNQGVSEERIHLGSSPKKGGNCDLSHQERLQSKSLHLSPQEQSASYQDRRQSWRRASMKETNRRKSLHPIHQGITELSRSISVDLAESKRLGCLLLSSFQFSIQKLEPFLRDTKGFSLESFRAKASSLSEELKHFADGLETDGTLQKCFEDSNGKASDFSLEASVAEMKEYITKFSLERQTWDQLLLHYQQEAKEILSRGSTEAKITEVKVEPMTYLGSSQNEVLNTKPDYQKILQNQSKVFDCMEFVMDELQGSVKQLQAFMDESTQCFQKVSVQLGKRSMQQLDPSPARKLLKLQLQNPPAIHGSGSGSCQ [chain 3 R195A, chain 3 V198L, chain 5 L290F]"
